Assay results reported in patent publication US20170342155A1 (Amgen, published 2017).

T1: wild-type murine CCR7 (pcDNA3.1 Neo-mouseCCR7, 20060298628) (mouse, UniProt P47774 25-378)
T1 construct: Full open reading frame as printed; Expressed on transfected 293T cells; also called mCCR7; wild-type murine CCR7 receptor
T1 sequence: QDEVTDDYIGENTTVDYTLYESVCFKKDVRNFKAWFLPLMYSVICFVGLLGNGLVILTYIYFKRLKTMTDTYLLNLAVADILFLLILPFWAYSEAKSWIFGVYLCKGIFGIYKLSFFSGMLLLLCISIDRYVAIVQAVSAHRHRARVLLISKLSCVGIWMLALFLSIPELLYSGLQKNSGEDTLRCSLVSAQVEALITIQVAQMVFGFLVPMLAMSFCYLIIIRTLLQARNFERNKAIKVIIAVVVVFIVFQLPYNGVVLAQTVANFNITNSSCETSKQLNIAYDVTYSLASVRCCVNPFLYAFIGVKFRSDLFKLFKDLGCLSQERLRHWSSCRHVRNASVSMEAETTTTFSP

T2: human CCR7 variant R201K (20100171268) (human, UniProt P32248 25-378)
T2 sequence: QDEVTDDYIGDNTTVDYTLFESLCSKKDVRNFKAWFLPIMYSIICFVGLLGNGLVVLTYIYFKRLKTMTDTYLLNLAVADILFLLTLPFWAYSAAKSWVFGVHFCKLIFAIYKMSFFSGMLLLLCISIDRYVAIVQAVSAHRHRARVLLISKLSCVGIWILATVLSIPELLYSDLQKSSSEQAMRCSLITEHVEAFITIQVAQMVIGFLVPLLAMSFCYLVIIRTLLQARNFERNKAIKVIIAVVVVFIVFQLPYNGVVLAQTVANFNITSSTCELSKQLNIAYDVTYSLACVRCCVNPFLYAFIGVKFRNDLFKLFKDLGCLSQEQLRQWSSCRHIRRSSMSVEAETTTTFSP

T3: murine CCR7 Y44F/V47L/K201R/N202S/G204S/T207A/L208M construct 20110105423 (mouse, UniProt P47774 25-378)
T3 construct: Murine CCR7 with seven human residues; also called YVKNGTL; construct YVKNGTL
T3 chain: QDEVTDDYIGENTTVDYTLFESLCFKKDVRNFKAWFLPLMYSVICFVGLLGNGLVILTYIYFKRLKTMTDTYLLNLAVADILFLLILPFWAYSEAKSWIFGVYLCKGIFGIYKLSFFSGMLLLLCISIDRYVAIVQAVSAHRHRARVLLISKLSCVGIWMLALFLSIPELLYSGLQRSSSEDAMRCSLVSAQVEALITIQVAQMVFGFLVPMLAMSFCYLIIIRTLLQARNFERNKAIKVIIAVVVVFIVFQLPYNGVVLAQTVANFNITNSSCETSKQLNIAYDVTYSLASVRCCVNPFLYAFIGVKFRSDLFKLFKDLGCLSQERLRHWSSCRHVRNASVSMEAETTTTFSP

T4: human CCR7 variant M208L (20100171271) (human, UniProt P32248 25-378)
T4 sequence: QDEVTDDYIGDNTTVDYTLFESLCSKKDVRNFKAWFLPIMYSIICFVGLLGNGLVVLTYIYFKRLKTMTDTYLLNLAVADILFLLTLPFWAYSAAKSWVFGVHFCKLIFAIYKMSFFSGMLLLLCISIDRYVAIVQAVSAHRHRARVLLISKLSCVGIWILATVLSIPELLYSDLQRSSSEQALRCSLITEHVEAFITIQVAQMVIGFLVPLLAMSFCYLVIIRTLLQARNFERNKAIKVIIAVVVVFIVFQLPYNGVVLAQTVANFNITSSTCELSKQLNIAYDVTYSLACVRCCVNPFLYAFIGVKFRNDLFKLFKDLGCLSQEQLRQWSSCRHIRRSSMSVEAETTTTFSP

T5: human CCR7 variant S295N (20110018205) (human, UniProt P32248 25-378)
T5 sequence: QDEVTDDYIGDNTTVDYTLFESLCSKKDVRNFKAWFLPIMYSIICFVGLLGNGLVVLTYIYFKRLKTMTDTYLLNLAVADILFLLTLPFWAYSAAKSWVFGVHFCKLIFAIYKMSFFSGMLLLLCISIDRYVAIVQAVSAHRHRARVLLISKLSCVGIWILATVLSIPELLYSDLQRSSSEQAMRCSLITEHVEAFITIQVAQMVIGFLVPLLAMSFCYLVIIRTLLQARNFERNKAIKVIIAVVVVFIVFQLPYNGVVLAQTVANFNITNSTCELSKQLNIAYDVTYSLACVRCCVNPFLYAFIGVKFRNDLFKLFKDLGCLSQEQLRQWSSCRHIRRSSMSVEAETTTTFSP

T6: human CCR7 variant S49F (20100122627) (human, UniProt P32248 25-378)
T6 sequence: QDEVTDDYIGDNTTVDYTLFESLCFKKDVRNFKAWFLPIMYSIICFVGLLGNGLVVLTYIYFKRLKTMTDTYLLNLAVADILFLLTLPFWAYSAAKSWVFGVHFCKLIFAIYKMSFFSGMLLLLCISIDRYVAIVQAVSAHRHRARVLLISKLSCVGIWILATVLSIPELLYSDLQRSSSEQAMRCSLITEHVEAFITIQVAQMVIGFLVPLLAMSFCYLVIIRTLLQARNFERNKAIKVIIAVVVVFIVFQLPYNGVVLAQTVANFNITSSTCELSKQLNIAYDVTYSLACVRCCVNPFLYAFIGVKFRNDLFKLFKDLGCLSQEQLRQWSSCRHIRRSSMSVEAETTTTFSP


Columns and labels:
[1] = target: T1, wild-type murine CCR7 (pcDNA3.1 …); assay: flow cytometry on transfected 293T cells
Description: 293T cells were transfected with each of the 22 constructs using Fugene HD Transfection Reagent (Cat #: 04709705001) (Roche Applied Sciences, Indianapolis, Ind.) according to manufacturer's protocol. DNA to Fugene HD ratio used was 1:3. […] After 48 hours, transfected cells were harvested and washed with PBS+5% FBS two times. Cells were counted using the Nexcelom Cell Counter (Nexcelom Bioscience, Lawrence, Mass.), and 250,000 cells per well were plated in a 96 well round bottom plate. Cells transfected with each construct were stained in duplicate as follows: unstained control, 6B4.1 primary Ab followed by Goat anti-human-PE secondary Ab, 6B5.1 primary Ab followed by Goat anti-human-PE secondary Ab, mAb197 primary Ab followed by Goat anti-mouse-PE secondary Ab, and the controls of secondary Ab Goat anti-mouse-PE only and Goat anti-human-PE only. The cells were visualized by flow cytometry and geo means were generated and analyzed.

[2] = target: T2, human CCR7 variant R201K (20100171268); assay: flow cytometry on transfected 293T cells, PE secondary antibody, geo mean
[3] = target: T3, murine CCR7 …; assay: as above
[4] = target: T4, human CCR7 variant M208L (20100171271); assay: as above
[5] = target: T5, human CCR7 variant S295N (20110018205); assay: as above
[6] = target: T6, human CCR7 variant S49F (20100122627); assay: as above

binding result [1] | binding result [2] | binding result [3] | binding result [4] | binding result [5] | binding result [6] | Binder
no binding | binds | binds | binds | binds | binds | antibody 6B4.1 (antibody, V domains shown, Human antibody from XenoMouse hybridoma; Light = 2 and heavy = 42 is inferred from the order of the listing (light chains first)) VH: QVQLVESGGGVVQPGRSLRLSCAASGFTFSSYGMHWVRQAPGKGLEWVAVIWYDGSKKYYADSVKGRFTISRDNSKNTLYLQMNRLRAEDTAVYYCARDGGIAVFLQDNWFDPWGQGTLVTVSS VL: SYELTQPPSVSVSPGQRARITCSGDKLGDKYASWYQQKPGQSPLLVIYQDSKRPSGIPERFSGSNSGNTATLTISGTQAMDEADYYCQAWGSSTVIFGGGTKLTVLG
no binding | binds | binds | binds | binds | binds | antibody 6B5.1 (antibody, human IgG2, lambda, V domains shown, Human antibody from XenoMouse hybridoma; Light = 18 and heavy = 50 is inferred from the order of the listing) VH: QVQLVESGGGVVQPGRSLRLSCAASGFTFRSYGMHWVRQAPGKGLEWVAVIWYDGSKKYYADSVKGRFTISRDNSKNTLYLQMNRLRAEDTAVYYCARDGGIAVFLEDNWFDPWGQGTLVTVSS VL: SYELTQPPSVSVSPGQRASITCSGDKLGDKYASWYQQKPGQSPLLVIYQDGKRPSGIPERFSGSNSGNTATLTISGTQAMDEADYYCQAWGSSTVIFGGGTKLTVLG
